assay: soluble on expression in E. coli; label from the status in PepcDB or PDB records

Sequence	soluble on expression in E. coli
MVSSAVKCGICRGVDGKYKCPKCGVRYCSLKCYKDAAKHVHKESEQPRAGTEANVEVVNNDKIINSSLAMNKTLKTKAFDDIYQNSAELQELLKYNTVKFHLAKVYRILSSTVNDGSSGKMNSDLQKELAVNYLNTLRYGGIHYNEAIEEFCQILLDKLNAVKK	soluble
MVSSDVPKTQRALIFESYGGPLEIKQLPIPQPNEDELLVKMEYSGICHSDVHTWLGDFHYVSKCPMIGGHEGAGSVISVGSKVKNWQIGDKVGIKLVQGNCLNCEYCQTGHEPLCPHVWNIGVQKYGTFQEYATIRDVDAIKIPKSMNMAAAAPVLCGGVTAYKALKESEVKSGQIVAVTGAGGGLGSFAIQYARAMGMRVVAEDIVAHIREITDGGAHGVVNFAAAKVPMEKALEYVRKRGTVVFVGLAKDSKILVDTIPLIFNAVKIKGSIVGSRLDVNEAMDFVARGAVNVPLELVKLEDVAEVYTKMHDGKINSRVVVDFSL	not soluble
MVTEQEIEAIGKTLVDPKQPLQARFRALFTLRGLGGPDAISWISRGFEDSSALLKHELAYCLGQMRDVRAIPVLVGVLQDTSQEPMVRHEAGEALGAIGNPEVLGLLKQYSTDPVVEVAETCQLAVGRLEWLQQHPGEATCAGPYLSVDPAPPAAEQDVGRLREALLDEARPLFERYRAMFALRNVGGKEAALALAEGLQCGSALFRHEVGYVLGQLQHEAAVPGLAATLARTTESPMVRHECAEALGAIARPACLAALREHIEDPEQVVRESCEVALDMYEYESSQDFQYADGLERLRPPP	soluble
MVTFASGDMLADDLGRFDYVVAMDSLIYYTDADIAAALDRLGARTRHSVVFTVAPRTPFLMAFWTMGKLFPRSDRSPVMIPHPFQPLNEATGGRLVKVGRVSRGFYISECLEFRPLEHHHHHH	soluble
MVTLTTNTEGATIYYTLDGSNPTNKSVRYNGRIVVNENSVIKAIAEKEGLTSSAISTFSFVIVNNEPVRIHDIQGKSHLSPYNGKKVYNVEGVVTALDKNGFYIEDNQPDNDPATSEGMYVYKKDANVAVGDLIQVDGVVEEYVGPGYAERFDTDLTTTEIKASRVVVIAKDQVLPAPIVLGENGVKIPDQIIDNDAFGLFDPNEDAIDFYESVEGMRVTMPTPKIIAPQKNGNLYVTVKNGGNKVVTKYGTPVLDENQLNPERLSVKVPRDYVAKVGDTFTGDITGVVGYDYGSFRIAPITELPSVVDGGFKQIGANIQPRLDKLEHHHHHH	soluble
MVTQTNPVPVTYPTDAYIPTYLPDDKVSNLADLKKLIEMDSRLDLYLTRRRLDTSINLPTNTKTKDHPPNKEMLRIYVYNTTESSPRSDSGTPADSGKTTWTLRIEGKLLHESANGKHPFSEFLEGVAVDFKRLKPLGMGKKRKRDSSLSLPLNLQQPEYNDQDSTMGDNDNGEDEDSAEAESREEIVDALEWNYDENNVVEFDGIDIKRQGKDNLRCSITIQLRGVDGGKVQYSPNLATLIGMQTGSVNDAVYSIYKYILINNLFVTEQTEAQDGSNDAEDSSNENNNKNGAGDDDGVEGSTPKDKPELGEVKLDSLLQKVLDTNAAHLPLMNVVQTVNKLVSPLPPIILDYTIDLSKDTTYGATTLDVDVSHILHQPQPQPNLQKEEETDAEDTAKLREITKLALQLNSSAQKYQFFHELSLHPRETLTHYLWSSKQNELVLQGDQYFNEDAARTSDIYSNNNNDRSLMGNISLLYSQGRL	soluble
MVVEMLGKLKEKLQSFIRRVEENVEKEEDEAKKKGLLDKILMIEIKEKDIEEALEDLELELLEADVALEVVDELKDRIKRNLVGKKVRIGTNKEKIIEEAVRKAVLEILTPEKKMDLLEEIKKAEKPYVILFVGFNGSGKTTTIAKLAHWLKKNGFSVVIAASDTFRAGAIEQLEEHAKKVGVKVIKHKYGADPAAVAYDAIQHAKARGIDVVLIDTAGRSETNRNLMDEMKKIARVTKPNLVIFVGDSLAGNAIVEQARQFNQAVKIDGVILTKLDADARGGAALSISHVINAPILFVGIGQGYEDLIPFDERWFVEKILGEESA	soluble
MVVIANAHNELIHDAVLDYYGKRLATCSSDKTIKIFEVEGETHKLIDTLTGHEGPVWRVDWAHPKFGTILASCSYDGKVLIWKEENGRWSQIAVHAVHSASVNSVQWAPHEYGPLLLVASSDGKVSVVEFKENGTTSPIIIDAHAIGVNSASWAPATIEEDGEHNGTKESRKFVTGGADNLVKIWKYNSDAQTYVLESTLEGHSDWVRDVAWSPTVLLRSYLASVSQDRTCIIWTQDNEQGPWKKTLLKEEKFPDVLWRASWSLSGNVLALSGGDNKVTLWKENLEGKWEPAGEVHQGGGGSGGGGATSKEFDGPCQNEIDLLFSECNDEIDNAKLIMKERRFTASYTFAKFSTGSMLLTKDIVGKSGVSIKRLPTELQRKFLFDDVYLDKEIEKVTIEARKSNPYPQISESSLLFKDALDYMEKTSSDYNLWKLSSILFDPVSYPYKTDNDQVKMALLKKERHCRLTSWIVSQIGPEIEEKIRNSSNEIEQIFLYLLLNDVVRASKLAIESKNGHLSVLISYLGSNDPRIRDLAELQLQKWSTGGCSIDKNISKIYKLLSGSPFEGLFSLKELESEFSWLCLLNLTLCYGQIDEYSLESLVQSHLDKFSLPYDDPIGVIFQLYAANENTEKLYKEVRQRTNALDVQFCWYLIQTLRFNGTRVFSKETSDEATFAFAAQLEFAQLHGHSLFVSCFLNDDKAAEDTIKRLVMREITLLRASTNDHILNRLKIPSQLIFNAQALKDRYEGNYLSE	soluble
MVVMSKVLLNIGCADVDKPGYINVDARKTKVTHLVSNAWDLDCFEENSVHEIYSRHMLEHLNPEYAKLALQKWFYILEPEGKLVVIVPDIEFHARQLLGVSRSSFGDQMEHAFAGFWGWREKERGGSDFDAHQWGYTVATLENEIGAVGFERIERVVEGVDSEPWHLQMTARKPMTSLCCPMDFRGPFPLEHHHHHH	soluble
MVVPGKNSTISPDYFTASQTSPLDMMKFPSPGSSKRYDNGGGIGLGIVAALEKSSIGINPVCHTGAGSKGFDLARYSKRFQFAAGIDLSDSEEYTCVTTRDGLTKVYYKEEEFEFGHNLLNGDQRWRKPIEIAEESPAKERRVLRDCPDFLTSCCLCKKKLQGKDIYMYKGDEGFCSKECRSLKIMEDSLKEQHKLTSVEVLTGEEIASPGIFLI	soluble
MVVSIITPLYKVEDFIARCADSLFRQSYTEIEYIFVDDCSSDRSVEVLLQVAERYPQLQQQIRILHHESNRGVAAARETGLAAATGEYVYWVDADDWIEPDAIEKMVVRSEQGQKDIIACGWYLCFRQNERRMPMPCYADAETALRGMLSGTMRWNLWLYMIKRDLYLMNDIHFMEGENVGEDMLVLIKLFSHAKSIGFVKDAFYHYVKQNENSLTRLSPEQQMKRQMRNLQAATDYLVTHFIGKYEKEINFFKLNAKMPLLISNDKNSYRTWTACFPEANKYIMANKRQTLRMRLVQLMAAKRQFWLVELYYQLVFKFVYGILYK	not soluble
MVVSSKMDIFNELESQVRSYSRSFPTIFTKSKGYKLWDVDGKEYIDFFSGAGALNYGHNDDKMKQVLIDYLLEDGIIHSLDMGTSAKVNFLKHFNKIILEPRDLNYKIMFPGPTGTNSVESALKIARKVTGRTNIISFSNAFHGMSLGSLSITSNHFKRKGAGVPLNNSIIMPYENYLDSLNSLSYLEKVLGDSGSGVALPAAIILETVQGEGGLNTASSQWLKGIDRLCKKYNILLIVDDIQAGCGRTGTFFSFEPASIKPDIICLSKSISGIGLPMAITLIKPEYDKWEPGEHNGTFRGNNLAFLAATEALSYWKDIEFINALKWKSEKITSFLNEICLKYPQLQGEVRGRGFMQGIACNTFGIAKKICSVAFENGLIIETSGPNDEVIKLLPSLTIDLEGLSKGLEMLEDSISTILKEVTH	not soluble
MVWLANPERYGQMQYRYCGKSGLRLPALSLGLWHNFGHVNALESQRAILRKAFDLGITHFDLANNYGPPPGSAEENFGRLLREDFAAYRDELIISTKAGYDMWPGPYGSGGSRKYLLASLDQSLKRMGLEYVDIFYSHRVDENTPMEETASALAHAVQSGKALYVGISSYSPERTQKMVELLREWKIPLLIHQPSYNLLNRWVDKSGLLDTLQNNGVGCIAFTPLAQGLLTGKYLNGIPQDSRMHREGNKVRGLTPKMLTEANLNSLRLLNEMAQQRGQSMAQMALSWLLKDDRVTSVLIGASRAEQLEENVQALNNLTFSTKELAQIDQHIADGELNLWQASSDK	soluble
MVYKNILVGLDGSSQADNAFKVACGLANALSADLHPIWIVNRDRGMDSSFGVNEDFYRDQYHQVQDKLVSYVEDAKKAGLKVTGEALVGNIKLVLANEYPKEHGIDLIVLGNTGLNTVEKLVVGSHTSYVIRNSACDVLVVK	not soluble
MVYSVPMMCAQDLRRSAMLDVVVAGGGYVGLSAAVAIKQAAPHLNVQVIEAAPDDVWKKDVRASAVIAAATRMLDVFGIWNEIEPEAQPIHKMVVTDSKTADPVRPVFLTFDGAVEEGRPFAHMVPNVAMVSALRGLCERIGIKIRHGISVSGFTAGPQSTAITLSDGTSLEARLLIACDGVRSALRDMAGIKTVHWAYDQSGIVTTVEHERPHEGCAEEHFLPSGPFAVLPLKGNRSSLVWTERTADAVRLVASDDLVFEEELERRFGHKLGPVRPVGPRRAFPLGLTLARSFVAPRFALAGDAAHGIHPISGQGLNLGFKDVAALAETVVEADRLGLDIGSLNVLERYQSWRRFDTLRMGVTTDVLNRLFSNDVGPIRVMRDFGLGVVDRLPGLKSYFIGQAAGTTDANAPRLLAGEALLEHHHHHH	not soluble
MWKTASDKGLGHLLRDVWSLLNEEERELLDKEIQPFPCKKASTVFSEGDIPNNLFYLYEGKIKILREGVYGRFHISRIVKPGQFFGMRPYFAEETCSSTAIAVENSKVLAIPVEAIEALLKGNTSFCRYFLKALAKELGYAERRTVTLTQKHVRGRLAETLLILKENFGFENDGATLSIYLSREELATLSNMTVSNAIRTLSTFVSERMLALDGKRIKIIDCDRLQKTARSG	soluble
MWLGYMNKSIPTTRKTRTFKAMSIEFSAPAKMKIEVWSDIMCPFCYIGKKRLDDALSTFDQAGRIEVEYKSFELMPGLETHPLRSDVEYLADAKGMSLEQARQMNGQVQAMAQATGLEMNPDETIAANTINAHRLTHFAKAHGKQQEVAQELFKAHFVDGKNVDDLDVLVSIAAEVGLDASAAREALESDVYTNEVQQDVHEARQLGVQGVPFFVFDRKYAINGAQQEEVFTGTVEKAFEEWAAENPVSPFEVIDGQSCSVDGTCN	not soluble
MWRSSLMCLPDTSWGAMETTFVLDALEQALWARRPSGTVHHSDKGSQYVSLAYTQRLKEAGLLASTGSTGDSYDNAMAESINGLYKAEVIHRKSWKNRAEVELATLTWVDWYNNRRLLERLGHTPPAEAEKAYYASIGNDDLAA	not soluble
MWTDAGGQVHEAASGDVRIASLVPSITELLFDLGLADQLVARTGFCIHPEPAVRAVAKVGGTKDVKLDRLRALAPTHVVVNIDENRRETVDEIRTFVPHVIVTHPCAPEDNLALYRLLGGIFGRRPQAEALVGQLRGELDAIQAQTWPARRVLYAIWQDPWMTVSRATYISRMLALVNWATWPDDADTSDTPAACVDGDCSRPNAPGERYPTFRWSDALVRELDAVLLSTEPYRFTEDHADALERQIGKPVLLVDGEMLSWYGSRAVAGARYLRSLAQGFLEHHHHHH	soluble
MWTNTFQEGLKIVGENISLSLPDGRQELFRLTDGAISSDATTGTLSKDQAGWRYDYRDGTSSLFDVQGRLIQRKVRGQVITITYPNLSTTKAKDGFGNTLTVSWNATKQPYLVDYNGSLKVEYLYDGGARLVSKKTTSQGLNRTRKYLYADSGNAGLMVGIIDEQGTRYATWTYDNQGRAISSEHANGAEKVSLAYNDDGSTTVTNEYGKQATYRFQVIQGIKRIVAIEGQPSPNCPSSNSTFTYDDQGLLTSKRDNNGNLTTYQYNARGLETSRTEAAGTAQARTITTDWHPTLFLPVQVSEPGRITRYQYDAEGRKTGETVTTR	not soluble

Source: the DeepSol protein solubility set
